Results published in the supplement of paper PMC9170038.

Tested on: MS2 coat protein
Assay: apparent KD of MS2 coat protein; designed switch direction (-1 OFF switch, 1 ON switch): 1; higher = weaker reporter binding
Procedure, shortened: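 Designed RNA switches with common flanks were made on Illumina chips by stalled E. coli RNA polymerase. Titration with SNAP-549-labelled MS2 coat protein doubled from 0.7 or 1.5 nM up to 3 µM. Apparent KD is each design's median over clusters after curve-fitting normalised fluorescence.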

[1] = input ligand: microRNA oligo, concentration not stated
[2] = Eterna round: R95, input ligand: FMN 200 uM
[3] = Eterna round: R95, input ligand: microRNA oligo, concentration not stated
[4] = Eterna round: R95, input ligand: none

Row | Sequence | apparent KD of MS2 coat protein (input ligand: FMN 200 uM) [nM] | apparent KD of MS2 coat protein [1] [nM] | apparent KD of MS2 coat protein (input ligand: none) [nM] | apparent KD of MS2 coat protein [2] [nM] | apparent KD of MS2 coat protein [3] [nM] | apparent KD of MS2 coat protein [4] [nM]
1 | UUUAUACAUGAGGAUCACCCAUGUCAACAAAGUCGAGGAUAUGGGCAUAUUAUCUUAUUUCCAGAAGGCGAAUUCU [salish99_ss1_r3_090] (Eterna round: R96, puzzle: Same State 1) | 101 | 305 | 378 | – | – | –
2 | AGCGAACAUGAGGAUCACCCAUGUAGACCGCGUGUGAUAACACAGGAUAUCAAAGGAAGAAGGAGUGAGAAGGGUGGGAAGGAG [Default title] (Eterna round: R96, puzzle: Same State NG 3) | 93.6 | 53.7 | 75.1 | – | – | –
3 | GGCGAACAGGCUAACAUGAGGAUCACCCAUGUGGACUUCGUGUAGGAUAUCGGGAAGGAGGAAACCGAGAAGGGCAAAGAAGCC [AK SSNG3-V2-49] (Eterna round: R96, puzzle: Same State NG 3) | 195 | 88.2 | 93.7 | – | – | –
4 | UUAAAACAUGAGGAUCACCCAUGUCAACAAAGUCGAGGAUAUGGGCAAAUAAAAUAAGAACCAGAAGGCGAAUAAU [salish99_SS1_r3_006] (puzzle: Same State 1) | – | – | – | 38.2 | 434 | 409
5 | AGUCCAGCCUGAGCUGGACAAAAGCAUGUACAUGAGGAUCACCCAUGUCAUGUACAAGCUUUUUGCUCGUCUAAAUA [Mat - hsa-mir-208a - Mod of JL - D27] (puzzle: Sensor for hsa-mir-208a) | – | – | – | 516 | 15.8 | 699
6 | AGCUUUUAAUCAGGAUAUGGUCACAUGAGGAUCACCCAUGUAACGAUGAUAUAAUGUGGUCAAGACUAGAAGGGAUUGCUAACA [SameState NG2 #67] (Eterna round: R96, puzzle: Same State NG 2) | 172 | 232 | 288 | – | – | –
7 | CAAGUACAUGAGGAUCACCCAUGUAGAAGAGAUGCAGGAUAUGUGGGAAAAGGGAGUGUAACAGAAGGGCAAGGAG [JR_SS!_Sub018] (puzzle: Same State 1) | – | – | – | 50 | 55.4 | 59.9
8 | UUGGUUGUCGUAGGAUAUGUAGGAUAUGCCUACAUGAGGAUCACCCAUGUUCGCAUGGCAGAAGGACAGAAGGACGAUGACCAU [pwkr ssNG2 2FMN + 1F5.19] (Eterna round: R96, puzzle: Same State NG 2) | 13 | 20.5 | 50.2 | – | – | –
9 | GUUACAUGAGGAUCACCCAUGUAUGUGUGGGAGUAAGUGUCUUAGGAUAUCUAGUAUUUAAUGUAAGAGAAGGAAGAUUGUUGU [JMF's solution 64] (Eterna round: R96, puzzle: Same State NG 3) | 130 | 106 | 96.1 | – | – | –
10 | AACAAUCUAUCUGAGGAUAUCUUGAAAUAAACAUGAGGAUCACCCAUGUGCAGGAAAACUGCAUAUGAGAAGGCAGAUAGAUUGA [salish99_ss2_r3_028] (puzzle: Same State 2) | – | – | – | 14.5 | 124 | 148
11 | GUGACCUCCCUAGGAUAUCGCCAAAUGUGAUGUCGACAUGAGGAUCACCCAUGUAUAGUCACGAACGAGAAGGAGGGUGUGGCA [Cesodi] (Eterna round: R96, puzzle: Same State NG 2) | 15.6 | 17.5 | 19.4 | – | – | –
12 | AGUCCAGCAAGAGCUGGACAAAAGCAUGUACAUGAGGAUCACCCAUGUUCAUGUACAAGCUUUUAGCUCGUCUUAAA [Mat - hsa-mir-208a - Mod of JL - 58] (puzzle: Sensor for hsa-mir-208a) | – | – | – | 505 | 14.2 | 570
13 | CAGCUCGUGUGAGGAUAUGCCGCCGUUUCGGCUGCAGAAGGUGCUACGUUACAUGAGGAUCACCCAUGUCUCUGUUGUUUCGUG [salish99_SSNG1_r04_963] (Eterna round: R96, puzzle: Same State NG 1) | 20.8 | 17.9 | 23.2 | – | – | –
14 | GUAGCAUACCGAGGAUAUUCAUAUUAAAUUACAUGAGGAUCACCCAUGUAGGCCAAAAGGCCUUGGGAGAAGGCGGAAUGCUAC [Xeonanis - 20 Mod1] (Eterna round: R96, puzzle: Same State NG 2) | 18.8 | 89.3 | 102 | – | – | –
15 | AGUCCAGCCUGAGCUGGACAAAAGCAUGUACAUGAGGAUCACCCAUGUUCAUGUACAAGCUUUUUGCUCGUCUUAUU [salish99_208a_r3_047] (puzzle: Sensor for hsa-mir-208a) | – | – | – | 457 | 14.1 | 725
16 | UUUAUACAUGAGGAUCACCCAUGUCAACAAAGUCGAGGAUAUGGGCAUAUUAUCUUAUUUCCAGAAGGCGAAUUCU [salish99_ss1_r3_090] (puzzle: Same State 1) | – | – | – | – | 158 | –
17 | AGCUAGUACCGAGGAUAUACAUACAUGAGGAUCACCCAUGUAUACAUGAAUAUAUGAGACUACAUGUAGAAGGCGGUACUAGCA [Mat - Same State NG 2 - JL mod - D46] (Eterna round: R96, puzzle: Same State NG 2) | 16.2 | 42 | 60.5 | – | – | –
